Source: paper PMC6698960, “Isolation and Characterization of Nanobodies against a Zinc-Transporting P-Type ATPase” (Antibodies, 2018)
Substitutions are numbered along the chain they refer to.

B1: Nb7 (VHH)
VHH: QVQLVESGGGLVQAGGSLRLSCAASGLTFSAYNMGWFRQAPGKEREFVGAIWSSSFTYYLDSLKGRFTISRDNTKNTVYLQMNSLKPEDTAVYYCAAARRLLTQAGAVLTTSYEYWGQGTQVTVSS
B2: Nb11 (VHH)
VHH: QVQLVETGGGLVQAGDSLRLACAHSGRTFSTYAMGWFRQAPGKEREFVAAISGSGGTTIYADSVTGRFTISRDNTKNTVYLQMNSLKPEDTAVYSCAASQYYMGSRSTENYNVWGQGTQVTVSS
B3: Nb6 (VHH)
VHH: QLQLVETGGGLVQAGGSLRLSCAASGLIFSSYNMGWFRQAPGKEREFVGAIWSSSFTYLLDSVKGRFTISRDNAKNTVYLQMNSLKPEDTAVYYCAASRRLLTQGSAVSTTSYEYWGQGTQVTVSS
B4: Nb10 (VHH)
VHH: QVQLVESGGGLVQTGGSLRLSCAASGLTFSSYNMGWFRQAPGKEREFLGAIWSSGFTYYLDSVKGRFTISRDNAKNTVYLQMDSLKPEDTAVYYCAAARRLLTQAAAVMFNSYDYWGQGTRVTVSS
B5: Nb9 (VHH)
VHH: QLQLVESGGGVVQAGGSLRLSCAASGRTFSSYGMGWFRQAPGKEREFASAISGSGGSTYYADSVKGRFTISRDNAKNTVYLQMNSLKPEDTAVYYCARSRYYSGGRSLLEYDYWGQGTQVTVSS
notes: also called nanobody 9; source: E. coli BL21, purified (Ni2+ beads, SEC); not shown: His6, C-terminal, kept
B6: Nb8 (VHH)
VHH: QVQLVETGGGLVQAGGSLRLSCAASGRAFSSYGMGWFRQAPGKEREFVAAVSGSGATTIYADSVKGRFTISRDNAVNTVYLHMNDLKPDDTAVYYCAVGKYYSGSRQSHNYDYWGQGTQVTVSS
notes: also called nanobody 8; source: E. coli BL21, purified (Ni2+ beads, SEC); not shown: His6, C-terminal, kept
B7: Nb1 (VHH)
VHH: QVQLVESGGGLVQAGDSLRLSCAASGRTFSNYAMGWFRQAPGKEREFVAAISGGGGTTYYSDSVKGRFTISRDNAKSTVYLQMNSLKPEDTAVYFCASSTYYMPSRAADTYTYWGQGTQVTVSS
notes: also called nanobody 1; source: E. coli BL21, purified (Ni2+ beads, SEC); not shown: His6, C-terminal, kept
B8: Nb2 (VHH)
VHH: B7 VHH with V2L, S7T
notes: also called nanobody 2; source: E. coli BL21, purified (Ni2+ beads, SEC); not shown: His6, C-terminal, kept
B9: Nb4 (VHH)
VHH: QVQLVESGGGVVQTGGSLRLSCAASGRTFSTYGMGWFRQAPGKEREFVAAISGSGGMTYYGDPVKGRFTISRDNAVNTVYLQMNNLKPEDTAVYICAVGAYYSGGSRAQNYEYWGQGTQVTVSS
notes: also called nanobody 4; source: E. coli BL21, purified (Ni2+ beads, SEC); not shown: His6, C-terminal, kept
B10: Nb5 (VHH)
VHH: B9 VHH with P88A, I95V
notes: also called nanobody 5; source: E. coli BL21, purified (Ni2+ beads, SEC); not shown: His6, C-terminal, kept

What follows are binders tested against T1, zinc-transporting PIB-ATPase ZntA from Shigella sonnei (Shigella sonnei (UniProt Q3YW59, strain …, UniProt Q3YW59)) (assay: not given). Conditions: not given.
T1 sequence (Q3YW59 whole entry, one chain of several): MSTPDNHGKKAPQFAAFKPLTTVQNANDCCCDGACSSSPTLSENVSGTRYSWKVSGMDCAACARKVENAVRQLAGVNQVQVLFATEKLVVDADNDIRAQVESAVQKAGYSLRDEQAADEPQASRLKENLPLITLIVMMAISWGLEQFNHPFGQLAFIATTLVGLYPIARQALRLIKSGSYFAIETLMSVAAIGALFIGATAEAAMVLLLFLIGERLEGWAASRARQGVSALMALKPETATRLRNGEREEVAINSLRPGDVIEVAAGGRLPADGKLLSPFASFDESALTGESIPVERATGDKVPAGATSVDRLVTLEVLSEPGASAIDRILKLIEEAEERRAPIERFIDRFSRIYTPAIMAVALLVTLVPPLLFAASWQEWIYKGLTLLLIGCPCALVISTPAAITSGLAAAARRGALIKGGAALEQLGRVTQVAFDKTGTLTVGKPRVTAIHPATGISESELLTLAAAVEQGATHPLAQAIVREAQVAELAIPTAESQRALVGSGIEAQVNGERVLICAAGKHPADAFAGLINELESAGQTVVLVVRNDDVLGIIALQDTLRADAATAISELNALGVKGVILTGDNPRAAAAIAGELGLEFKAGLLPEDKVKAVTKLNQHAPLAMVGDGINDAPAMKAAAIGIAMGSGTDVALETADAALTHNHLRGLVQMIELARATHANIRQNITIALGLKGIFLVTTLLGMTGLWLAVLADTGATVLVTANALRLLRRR
B1: binds.
B2: binds.
B3: binds.
B4: binds.

Each binder was assayed against T1, zinc-transporting PIB-ATPase ZntA from … (assay: SEC). Conditions: both partners purified.
B5: binds.
B6: binds.
B7: binds.
B8: binds.
B9: binds.
B10: binds.
